According to patent US20220064310A1 (DEVELOPMENT CENTER FOR BIOTECHNOLOGY, published 2022):
Where a chain is given by its changes, count along the chain named. Each block holds one binder with its values, some of them ahead of it.

Key:
[1] = biological target: T1, CSF-1R-ECD-human Fc (in house) (human, UniProt P07333 20-512); assay: ELISA, coated CSF1R-ECD-hFc 1 ug/ml, anti-kappa HRP, one site specific binding fit (GraphPad Prism)
T1 construct: In-house fusion; also called CSF-1R-ECD-hFc; CSF1R-ECD-hFc; not shown: human Fc
T1 sequence (P07333 20-512): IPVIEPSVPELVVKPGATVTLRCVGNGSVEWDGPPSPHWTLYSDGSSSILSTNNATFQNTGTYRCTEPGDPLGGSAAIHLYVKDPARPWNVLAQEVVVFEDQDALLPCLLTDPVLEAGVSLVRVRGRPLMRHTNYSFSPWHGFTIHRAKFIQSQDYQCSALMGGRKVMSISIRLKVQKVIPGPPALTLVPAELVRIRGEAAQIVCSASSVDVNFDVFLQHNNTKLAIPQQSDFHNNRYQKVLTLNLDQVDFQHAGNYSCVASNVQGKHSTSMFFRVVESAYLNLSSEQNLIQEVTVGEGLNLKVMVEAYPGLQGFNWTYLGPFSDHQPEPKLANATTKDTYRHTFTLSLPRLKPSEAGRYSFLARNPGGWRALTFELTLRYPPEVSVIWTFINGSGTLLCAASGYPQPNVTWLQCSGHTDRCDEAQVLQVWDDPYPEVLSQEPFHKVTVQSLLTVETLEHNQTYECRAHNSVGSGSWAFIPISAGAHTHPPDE
Experimental: (§1) To know the binding affinity differences among individual antibodies, ELISA method was used. ELISA plate was coated with 1 μg/ml of CSF1R-ECD-hFc, then add assay antibodies diluted from 50 nM to 1×10⁻⁵ nM (5-10× fold dilution). Assay was measured by adding anti-kappa HRP secondary antibody (1:5000 dilution). Binding curve and KD were determined with GraphPad Prism software using one site-specific binding for nonlinear fit methods. […] This loss of avidity was recovered by back mutations, as evidenced by humanized antibodies B1-Hu, B2-Hu, B1-B1, and B2-B1 clones. (See FIG. 11 and FIG. 12).

[2] = biological target: T1, CSF-1R-ECD-human Fc (in house); assay: ELISA, coated CSF1R-ECD-hFc 1 ug/ml, anti-kappa HRP, OD450
Experimental: as §1

[3] = biological target: T1, CSF-1R-ECD-human Fc (in house); assay: ELISA, CSF1R-ECD-hFc coated at 1 ug/ml, anti-kappa HRP, one site-specific binding fit
Experimental: as §1

[4] = biological target: T1, CSF-1R-ECD-human Fc (in house); assay: ELISA, CSF1R-ECD-hFc coated at 1 ug/ml, anti-kappa HRP
Experimental: as §1

B1: B1-Hu(IgG4) (antibody, V domains shown)
VH: EVQLVQSGAEVKKPGATVKISCKVSGYSFTGYNMNWVQQAPGKGLEWMGNIDPYYGGTTYNQKFKGKATLTVDKSTSTAYMELSSLRSEDTAVYYCARRGDYSGSSYWYFDVWGQGTLVTVSS
VL: DIQMTQSPSSLSASVGDRVTITCKASDHINNWLAWYQQKPGKAPKLLLYGATSLETGVPSRFSGSGSGTDYTLTISSLQPEDFATYYCQQYWSTPFTFGQGTKVEIK
notes: an IgG1 and an IgG4 form
- Bmax [1]: 3.19

B2: B1-Hu(IgG1) (antibody, V domains shown)
VH: B1 VH
VL: B1 VL
notes: an IgG1 and an IgG4 form
- EC50 (read off the curve) [2]: ~40 pM

B3: humanized AB21 B1-Hu (AB21 VHB1 with Hu AB21 VL) (antibody, V domains shown)
VH: B1 VH
VL: B1 VL
notes: Human IgG from vector pTCAE8-AB21 in FreeStyle 293 cells, kappa light chain; also called heavy chain B1 combined with light chain Hu
- Kd [3]: 95.8 pM

B7: M-M(IgG4) (antibody, V domains shown)
VH: EVQLQQSGPELEKPGASVKISCKASGYSFTGYNMNWVKQSNGKSLEWIGNIDPYYGGTTYNQKFKGKATLTVDKSSSTAYMQLKSLTSEDSAVYYCARRGDYSGSSYWYFDVWGAGTTVTVSS
VL: DIQMTQSSSYLSVSLGGRVTITCKASDHINNWLAWYQQKPGNAPRLLISGATSLETGVPSRFSGSGSGKDYTLSITSLQTEDVVTYYCQQYWSTPFTFGSGTKLEIK
notes: an IgG1 and an IgG4 form
- Bmax [1]: 3.2

B8: AB21 M-M (mouse heavy chain variable region with mouse light chain variable region, recombinant) (antibody, V domains shown)
VH: B7 VH
VL: B7 VL
- Kd [3]: 93.6 pM

More lines, now with the values ahead:

- Kd [3]: 55.8 pM
B4: humanized AB21 B1-B1 (AB21 VHB1 with AB21 VLB1) (antibody, V domains shown)
VH: B1 VH
VL: B1 VL with V15L, Y49S
notes: Human IgG from vector pTCAE8-AB21 in FreeStyle 293 cells, kappa light chain; also called heavy chain B1 combined with light chain B1

- Kd [3]: 83000 pM
- fold lower affinity than the original mouse antibody (M-M) [4]: ~1000 fold
B5: humanized AB21 Hu-Hu (Hu AB21 VH with Hu AB21 VL), the initial humanized antibody (antibody, V domains shown)
VH: B1 VH with K67R, A68V, L70I, V72A, K74T, S77D, R98T
VL: B1 VL
notes: Human IgG from vector pTCAE8-AB21 in FreeStyle 293 cells, kappa light chain (anti-kappa HRP detection); also called heavy chain Hu combined light chain Hu

- Bmax [1]: 3.17
- EC50 (read off the curve) [2]: ~80 pM
B6: humanized AB21 B2-Hu (Hu AB21 VHB2 with Hu AB21 VL) (antibody, V domains shown)
VH: B1 VH with T17S, Q38K, M48I
VL: B1 VL
notes: Human IgG from vector pTCAE8-AB21 in FreeStyle 293 cells, kappa light chain
